Assay results as given in patent US20140301990A1.

Key:
Assay in all cases: cell_activity
[1] = system: TALEN 101515 (engineered); details: pair with 101512, K562
[2] = system: TALEN 101511 (engineered); details: pair with 101515, K562; 3.4 with 101514, 5.3 with 101516
[3] = system: ZFN 16787 (TRBC) (engineered); details: pair with 16783, K562 day 3; 15.6 day 10; Table 6 8.73 TRBC1, 8.68 TRBC2
[4] = system: ZFN 22409 (TRBC) (engineered); details: pair with 16783, K562 day 10
[5] = system: ZFN 22449 (TRBC) (engineered); details: pair with 16783, K562 day 3; 8.1 day 10
[6] = system: ZFN 22454 (TRBC) (engineered); details: pair with 16783, K562 day 3; 12.1 day 10
[7] = system: TALEN 101514 (engineered); details: pair with 101513, K562
[8] = system: TALEN 101536 (engineered); details: pair with 101541, K562; 8.5 with 101539, 9.9 with 101540
[9] = system: TALEN 101513 (engineered); details: pair with 101516, K562; 5.9 with 101514, 8.3 with 101515
[10] = system: TALEN 101540 (engineered); details: pair with 101536, K562; 9.6 with 101537
[11] = system: TALEN 101539 (engineered); details: pair with 101536, K562; 0.0 with 101537
[12] = system: TALEN 101516 (engineered); details: pair with 101513, K562
[13] = system: TALEN 101512 (engineered); details: pair with 101516, K562; 5.3 with 101514, 8.9 with 101515
[14] = system: TALEN 101537 (engineered); details: pair with 101541, K562; 9.6 with 101540, 0.0 with 101539

Work on “GTTGAAGGCGTTTGCACATGC (double strand) [101515 site]” yielded an activity [1] of 8.9 % NHEJ.
“GTGCTGTGGCCTGGAGCAA (double strand) [101511 site]” showed an activity [2] of 5.9 % NHEJ.
Work on “TCTCGGAGAATGACGAGTGGACCCAGGA (double strand) [TRBC 16787 site]” yielded an activity [3] of 12.1 % NHEJ, an activity [4] of 14.7 % NHEJ and an activity [5] of 20.1 % NHEJ. For the same sequence, the activity [6] was 17.7 % NHEJ.
Sequence “TTGAAGGCGTTTGCACATGCA (double strand) [101514 site]” has an activity [7] of 5.9 % NHEJ.
In the case of “TTCCGCTGTCAAGTCCAGTTC (double strand) [101536 site]”, the activity [8] is reported as 15 % NHEJ.
With “CTGTGGCCTGGAGCAACAA (double strand) [101513 site]” the activity [9] was 16.4 % NHEJ.
With “CTGGGTCCACTCGTCATTC (double strand) [101540 site]” the activity [10] was 9.9 % NHEJ.
“CTGGGTCCACTCGTCATTCT (double strand) [101539 site]” was tested, and the activity [11] was 8.5 % NHEJ.
“GTTGAAGGCGTTTGCACATG (double strand) [101516 site]” was tested, and the activity [12] was 16.4 % NHEJ.
For “GTGCTGTGGCCTGGAGCAAC (double strand) [101512 site]”, the activity [13] was 12 % NHEJ.
“CTGTCAAGTCCAGTTCTA (double strand) [101537 site]” gave an activity [14] of 9.9 % NHEJ.
